# Data from patent publication US8445662B2, “Mycobacterium tuberculosis fusion protein and uses thereof” (The 309th Hospital, The People's Liberation Army, priority 2006, dated 2013).
# Settings: guinea pig, in vivo
substance,measurement,value
Bovine serum albumin (BSA): positive control group in the guinea pig anaphylaxis test,"Averaged weight (g), during excitation",447.1 ± 41.4 g
same,"Averaged weight (g), sensitized upon the last injection",380.6 ± 23.6 g
same,Reaction level + (number of guinea pigs),0
same,Reaction level ++ (number of guinea pigs),0
same,Reaction level +++ (number of guinea pigs),3
same,Reaction level ++++ (number of guinea pigs),0
same,Reaction level − (number of guinea pigs),3
